{"source": "patent US20090093061A1", "test_in_all_cases": "GroEL-490 bead column capture of denatured serum, ATP elution, LC-MS-MS", "key": {"[1]": {"target": "phosphoinositol 3-phosphate-binding protein-2 (Homo sapiens) (UniProt Q9HAU0)", "sequence (Q9HAU0 2-1116 limits assumed)": "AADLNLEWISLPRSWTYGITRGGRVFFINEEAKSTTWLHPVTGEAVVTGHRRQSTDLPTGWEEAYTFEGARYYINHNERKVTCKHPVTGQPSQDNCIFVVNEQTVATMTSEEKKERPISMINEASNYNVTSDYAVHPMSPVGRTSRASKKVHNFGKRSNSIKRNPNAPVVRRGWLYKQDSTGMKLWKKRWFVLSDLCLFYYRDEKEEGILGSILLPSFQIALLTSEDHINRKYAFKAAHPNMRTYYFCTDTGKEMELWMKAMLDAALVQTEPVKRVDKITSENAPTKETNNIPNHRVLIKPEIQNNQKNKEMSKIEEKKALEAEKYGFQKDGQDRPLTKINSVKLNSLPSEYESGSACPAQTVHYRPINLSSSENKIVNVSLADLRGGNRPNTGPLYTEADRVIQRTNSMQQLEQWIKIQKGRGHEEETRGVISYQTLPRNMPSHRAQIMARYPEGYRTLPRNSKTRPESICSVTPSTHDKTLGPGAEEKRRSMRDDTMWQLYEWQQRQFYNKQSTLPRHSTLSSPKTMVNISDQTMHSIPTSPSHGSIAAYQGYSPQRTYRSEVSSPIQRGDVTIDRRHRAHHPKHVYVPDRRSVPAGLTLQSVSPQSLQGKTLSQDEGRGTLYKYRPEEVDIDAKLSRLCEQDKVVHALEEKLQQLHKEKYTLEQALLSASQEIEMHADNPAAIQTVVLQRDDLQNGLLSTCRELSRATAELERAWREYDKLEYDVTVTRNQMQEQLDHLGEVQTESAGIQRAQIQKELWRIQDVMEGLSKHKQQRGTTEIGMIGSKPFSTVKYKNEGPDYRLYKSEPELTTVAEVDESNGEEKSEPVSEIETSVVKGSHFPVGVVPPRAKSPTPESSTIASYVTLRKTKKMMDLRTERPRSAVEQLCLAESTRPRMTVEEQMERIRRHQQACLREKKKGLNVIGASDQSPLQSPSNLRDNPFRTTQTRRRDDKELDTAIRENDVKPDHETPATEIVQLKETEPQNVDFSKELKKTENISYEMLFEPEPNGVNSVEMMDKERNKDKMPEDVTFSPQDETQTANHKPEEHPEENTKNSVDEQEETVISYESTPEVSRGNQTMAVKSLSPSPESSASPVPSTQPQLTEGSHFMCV"}, "[2]": {"target": "coronin, actin binding protein, 1B (Homo sapiens) (UniProt Q9BR76)"}, "[3]": {"target": "similar to KIAA2018 protein (Homo sapiens) (UniProt Q68DE3)"}, "[4]": {"target": "complement component 4B proprotein (Homo sapiens) (UniProt P0C0L5)"}, "[5]": {"target": "integrin, beta 5 (Homo sapiens) (UniProt P18084)"}, "[6]": {"target": "very large G-protein coupled receptor 1 (Homo sapiens) (UniProt Q8WXG9)"}, "[7]": {"target": "leucine-rich repeat-containing G protein-coupled receptor 6 (Homo sapiens) (UniProt Q9HBX8)"}, "[8]": {"target": "p47 protein isoform a (Homo sapiens) (UniProt Q9UNZ2)"}, "[9]": {"target": "tumor protein p53 binding protein, 2 (Homo sapiens) (UniProt Q13625)"}, "[10]": {"target": "similar to hypothetical protein (Homo sapiens)"}, "[11]": {"target": "SPRY domain-containing SOCS box protein SSB-4 (Homo sapiens) (UniProt Q96A44)", "sequence (Q96A44 whole entry, the tested form may be a part)": "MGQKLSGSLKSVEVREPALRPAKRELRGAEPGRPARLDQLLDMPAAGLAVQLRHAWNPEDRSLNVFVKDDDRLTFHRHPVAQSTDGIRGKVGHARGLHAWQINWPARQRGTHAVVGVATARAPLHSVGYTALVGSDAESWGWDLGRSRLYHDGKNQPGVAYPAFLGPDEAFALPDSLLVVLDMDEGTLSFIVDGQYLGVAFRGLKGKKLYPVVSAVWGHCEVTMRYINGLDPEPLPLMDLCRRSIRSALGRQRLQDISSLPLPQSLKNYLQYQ"}, "hemopexin (Homo sapiens)": {"target": "hemopexin (Homo sapiens) (UniProt P02790)"}, "[12]": {"target": "complement component 3 precursor (Homo sapiens) (UniProt P01024)"}, "[13]": {"target": "similar to BC331191_1 (Homo sapiens)"}, "[14]": {"target": "peroxisome biogenesis factor 13 (Homo sapiens) (UniProt Q92968)"}, "[15]": {"target": "extra spindle poles like 1 (Homo sapiens) (UniProt Q14674)", "sequence (Q14674 whole entry)": "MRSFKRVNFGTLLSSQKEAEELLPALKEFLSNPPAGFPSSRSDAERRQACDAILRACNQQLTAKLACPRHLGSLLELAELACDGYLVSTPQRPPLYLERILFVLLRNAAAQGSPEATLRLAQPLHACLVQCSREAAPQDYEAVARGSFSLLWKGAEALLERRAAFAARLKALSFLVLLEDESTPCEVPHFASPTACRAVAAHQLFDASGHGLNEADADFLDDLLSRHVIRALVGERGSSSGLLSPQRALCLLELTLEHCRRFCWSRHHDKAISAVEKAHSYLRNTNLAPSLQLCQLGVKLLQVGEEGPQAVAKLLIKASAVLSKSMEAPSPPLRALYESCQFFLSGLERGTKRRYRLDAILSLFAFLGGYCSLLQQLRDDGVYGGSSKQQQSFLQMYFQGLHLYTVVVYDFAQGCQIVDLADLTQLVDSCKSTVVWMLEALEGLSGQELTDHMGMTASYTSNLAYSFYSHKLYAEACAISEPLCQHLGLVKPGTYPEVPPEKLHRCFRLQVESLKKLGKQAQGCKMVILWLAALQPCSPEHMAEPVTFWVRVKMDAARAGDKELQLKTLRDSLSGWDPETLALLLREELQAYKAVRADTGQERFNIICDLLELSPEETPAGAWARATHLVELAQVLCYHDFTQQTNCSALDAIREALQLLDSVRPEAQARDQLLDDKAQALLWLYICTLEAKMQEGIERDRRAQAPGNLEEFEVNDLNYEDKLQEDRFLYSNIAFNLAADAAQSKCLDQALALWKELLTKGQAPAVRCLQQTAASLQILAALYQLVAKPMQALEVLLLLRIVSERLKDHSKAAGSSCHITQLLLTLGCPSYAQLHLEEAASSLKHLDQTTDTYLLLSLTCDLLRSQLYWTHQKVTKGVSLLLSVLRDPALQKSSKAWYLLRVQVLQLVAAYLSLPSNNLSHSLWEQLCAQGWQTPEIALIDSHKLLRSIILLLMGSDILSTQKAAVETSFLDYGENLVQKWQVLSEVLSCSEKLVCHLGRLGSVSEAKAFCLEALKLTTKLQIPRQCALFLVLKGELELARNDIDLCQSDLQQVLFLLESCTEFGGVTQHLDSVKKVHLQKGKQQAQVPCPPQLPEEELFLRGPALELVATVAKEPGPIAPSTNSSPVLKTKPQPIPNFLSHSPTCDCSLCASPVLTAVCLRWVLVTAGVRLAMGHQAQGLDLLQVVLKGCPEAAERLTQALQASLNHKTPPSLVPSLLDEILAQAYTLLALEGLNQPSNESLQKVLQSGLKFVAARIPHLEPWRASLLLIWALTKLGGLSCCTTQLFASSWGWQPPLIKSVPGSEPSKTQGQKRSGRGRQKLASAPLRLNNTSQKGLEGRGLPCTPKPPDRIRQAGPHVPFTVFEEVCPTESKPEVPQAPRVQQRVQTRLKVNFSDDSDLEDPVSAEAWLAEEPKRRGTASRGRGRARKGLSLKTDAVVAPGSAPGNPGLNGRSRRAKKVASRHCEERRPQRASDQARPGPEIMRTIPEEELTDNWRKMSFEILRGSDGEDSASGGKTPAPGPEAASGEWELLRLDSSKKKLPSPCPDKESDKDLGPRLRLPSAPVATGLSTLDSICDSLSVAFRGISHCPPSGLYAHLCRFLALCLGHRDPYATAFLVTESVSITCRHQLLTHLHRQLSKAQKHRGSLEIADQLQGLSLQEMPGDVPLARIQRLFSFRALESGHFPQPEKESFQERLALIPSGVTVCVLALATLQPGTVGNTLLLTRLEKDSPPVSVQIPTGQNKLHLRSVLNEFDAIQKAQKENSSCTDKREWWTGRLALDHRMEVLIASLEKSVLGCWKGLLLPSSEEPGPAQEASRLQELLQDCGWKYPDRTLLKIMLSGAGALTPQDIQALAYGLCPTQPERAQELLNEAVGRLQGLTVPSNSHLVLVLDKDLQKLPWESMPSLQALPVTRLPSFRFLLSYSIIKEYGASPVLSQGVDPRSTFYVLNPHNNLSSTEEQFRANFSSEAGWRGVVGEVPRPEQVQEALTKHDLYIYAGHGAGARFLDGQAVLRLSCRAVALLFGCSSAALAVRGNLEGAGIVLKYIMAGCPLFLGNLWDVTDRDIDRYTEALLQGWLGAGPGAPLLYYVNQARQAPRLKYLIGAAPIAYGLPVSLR"}, "[16]": {"target": "hypothetical protein XP_376158 (Homo sapiens)"}, "[17]": {"target": "neutral sphingomyelinase (N-SMase) activation associated factor (Homo sapiens) (UniProt Q92636)"}, "KIAA0317 (Homo sapiens)": {"target": "KIAA0317 (Homo sapiens) (UniProt O15033)"}, "[18]": {"target": "hemicentin (Homo sapiens) (UniProt Q96RW7)"}, "[19]": {"target": "myocardin-related transcription factor B (Homo sapiens) (UniProt Q9ULH7)"}, "[20]": {"target": "WD repeat membrane protein PWDMP (Homo sapiens) (UniProt Q8NEZ3)", "sequence (Q8NEZ3 whole entry)": "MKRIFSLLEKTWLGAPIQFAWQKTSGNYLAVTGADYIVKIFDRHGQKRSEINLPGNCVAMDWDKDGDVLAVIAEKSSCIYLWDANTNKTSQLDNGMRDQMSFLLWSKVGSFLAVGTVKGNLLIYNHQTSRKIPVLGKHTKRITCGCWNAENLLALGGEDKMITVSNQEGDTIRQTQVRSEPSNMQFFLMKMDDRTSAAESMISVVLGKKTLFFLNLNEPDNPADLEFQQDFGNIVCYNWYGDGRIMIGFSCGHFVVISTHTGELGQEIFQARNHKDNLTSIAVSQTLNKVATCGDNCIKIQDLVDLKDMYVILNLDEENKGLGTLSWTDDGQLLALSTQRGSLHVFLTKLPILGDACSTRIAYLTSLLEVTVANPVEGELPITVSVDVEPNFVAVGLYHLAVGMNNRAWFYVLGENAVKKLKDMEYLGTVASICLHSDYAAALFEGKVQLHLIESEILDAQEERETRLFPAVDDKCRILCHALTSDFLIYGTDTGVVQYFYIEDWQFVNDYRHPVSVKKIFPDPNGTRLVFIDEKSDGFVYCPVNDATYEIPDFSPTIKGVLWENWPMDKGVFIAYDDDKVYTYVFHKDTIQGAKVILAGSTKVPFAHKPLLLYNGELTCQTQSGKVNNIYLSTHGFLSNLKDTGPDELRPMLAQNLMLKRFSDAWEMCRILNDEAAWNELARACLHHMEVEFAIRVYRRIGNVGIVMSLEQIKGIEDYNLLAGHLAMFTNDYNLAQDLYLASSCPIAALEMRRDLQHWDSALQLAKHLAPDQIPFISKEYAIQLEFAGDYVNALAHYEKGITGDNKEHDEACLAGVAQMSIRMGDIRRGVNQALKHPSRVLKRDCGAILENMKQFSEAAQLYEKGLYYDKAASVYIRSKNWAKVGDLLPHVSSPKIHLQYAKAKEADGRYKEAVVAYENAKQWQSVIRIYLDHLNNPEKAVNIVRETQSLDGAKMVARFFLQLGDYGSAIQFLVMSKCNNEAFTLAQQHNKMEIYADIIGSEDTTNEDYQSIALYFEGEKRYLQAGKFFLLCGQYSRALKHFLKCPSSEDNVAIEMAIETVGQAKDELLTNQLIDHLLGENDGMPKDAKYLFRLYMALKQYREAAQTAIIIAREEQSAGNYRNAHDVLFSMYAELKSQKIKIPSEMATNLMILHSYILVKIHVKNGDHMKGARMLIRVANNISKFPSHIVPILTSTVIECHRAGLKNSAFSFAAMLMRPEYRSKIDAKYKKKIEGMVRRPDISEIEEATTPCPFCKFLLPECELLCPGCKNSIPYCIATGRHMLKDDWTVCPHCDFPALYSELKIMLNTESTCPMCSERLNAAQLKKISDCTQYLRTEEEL"}, "[21]": {"target": "alpha 2 type XI collagen isoform 3 preproprotein (Homo sapiens) (UniProt P13942)"}, "[22]": {"target": "T1, similar to Nonhistone chromosomal protein HMG-14 (High-mobility group nucleosome binding domain 1) (Homo sapiens) (UniProt P05114)", "T1 sequence (looked up)": "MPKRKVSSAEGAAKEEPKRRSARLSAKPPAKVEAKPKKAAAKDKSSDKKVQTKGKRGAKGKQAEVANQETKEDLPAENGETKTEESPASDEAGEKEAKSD"}, "[23]": {"target": "DNA fragmentation factor, 45 kD, alpha polypeptide (Homo sapiens) (UniProt O00273)"}, "[24]": {"target": "v-raf murine sarcoma 3611 viral oncogene homolog 1 (Homo sapiens) (UniProt P10398)"}, "keratin 1 (Homo sapiens)": {"target": "keratin 1 (Homo sapiens) (UniProt P04264)"}, "[25]": {"target": "titin isoform novex-2 (Homo sapiens) (UniProt Q8WZ42)"}, "[26]": {"target": "glutaminase C (Homo sapiens) (UniProt O94925)"}, "[27]": {"target": "DNA polymerase theta isoform 1 (Homo sapiens) (UniProt O75417)"}, "[28]": {"target": "stress 70 protein chaperone, microsome-associated, 60 kDa (Homo sapiens) (UniProt P48723)"}, "[29]": {"target": "target of myb1 (Homo sapiens) (UniProt O60784)"}}, "data": [{"substance": "GroEL having Aspartate 490 substituted with Cysteine, biotinylated and conjugated onto NeutrAvidin beads (from UniProt A1AJ51 1-548)", "values": [{"measurement": "Spectrum Count", "setting": "[1]", "value": 9, "unit": "count"}, {"measurement": "Spectrum Count", "setting": "[2]", "value": 28, "unit": "count"}, {"measurement": "Spectrum Count", "setting": "[3]", "value": 12, "unit": "count"}, {"measurement": "Spectrum Count", "setting": "[4]", "value": 11, "unit": "count"}, {"measurement": "Spectrum Count", "setting": "[5]", "value": 9, "unit": "count"}, {"measurement": "Spectrum Count", "setting": "[6]", "value": 14, "unit": "count"}, {"measurement": "Spectrum Count", "setting": "[7]", "value": 9, "unit": "count"}, {"measurement": "Spectrum Count", "setting": "[8]", "value": 22, "unit": "count"}, {"measurement": "Spectrum Count", "setting": "[9]", "value": 9, "unit": "count"}, {"measurement": "Spectrum Count", "setting": "[10]", "value": 13, "unit": "count"}, {"measurement": "Spectrum Count", "setting": "[11]", "value": 30, "unit": "count"}, {"measurement": "Spectrum Count", "setting": "hemopexin (Homo sapiens)", "value": 35, "unit": "count"}, {"measurement": "Spectrum Count", "setting": "[12]", "value": 43, "unit": "count"}, {"measurement": "Spectrum Count", "setting": "[13]", "value": 19, "unit": "count"}, {"measurement": "Spectrum Count", "setting": "[14]", "value": 38, "unit": "count"}, {"measurement": "Spectrum Count", "setting": "[15]", "value": 9, "unit": "count"}, {"measurement": "Spectrum Count", "setting": "[16]", "value": 15, "unit": "count"}, {"measurement": "Spectrum Count", "setting": "[17]", "value": 9, "unit": "count"}, {"measurement": "Spectrum Count", "setting": "KIAA0317 (Homo sapiens)", "value": 10, "unit": "count"}, {"measurement": "Spectrum Count", "setting": "[18]", "value": 10, "unit": "count"}, {"measurement": "Spectrum Count", "setting": "[19]", "value": 16, "unit": "count"}, {"measurement": "Spectrum Count", "setting": "[20]", "value": 16, "unit": "count"}, {"measurement": "Spectrum Count", "setting": "[21]", "value": 10, "unit": "count"}, {"measurement": "Spectrum Count", "setting": "[22]", "value": 13, "unit": "count"}, {"measurement": "Spectrum Count", "setting": "[23]", "value": 14, "unit": "count"}, {"measurement": "Spectrum Count", "setting": "[24]", "value": 13, "unit": "count"}, {"measurement": "Spectrum Count", "setting": "keratin 1 (Homo sapiens)", "value": 16, "unit": "count"}, {"measurement": "Spectrum Count", "setting": "[25]", "value": 56, "unit": "count"}, {"measurement": "Spectrum Count", "setting": "[26]", "value": 27, "unit": "count"}, {"measurement": "Spectrum Count", "setting": "[27]", "value": 24, "unit": "count"}, {"measurement": "Spectrum Count", "setting": "[28]", "value": 12, "unit": "count"}, {"measurement": "Spectrum Count", "setting": "[29]", "value": 30, "unit": "count"}]}]}
